Measurements as given in article PMC10412584, “Molecular reshaping of phage-displayed Interleukin-2 at beta chain receptor interface to obtain potent super-agonists with improved developability profiles” (Communications Biology, 2023).

T1: recombinant fusion protein comprising human IL-2R beta subunit extracellular domain and mouse IgG2a Fc (human, UniProt P14784 27-240)
T1 construct: human IL-2 receptor beta subunit (CD122), extracellular domain; also called IL-2R beta/mFc; IL-2R beta ECD/mouse IgG2a Fc
T1 sequence (looked up): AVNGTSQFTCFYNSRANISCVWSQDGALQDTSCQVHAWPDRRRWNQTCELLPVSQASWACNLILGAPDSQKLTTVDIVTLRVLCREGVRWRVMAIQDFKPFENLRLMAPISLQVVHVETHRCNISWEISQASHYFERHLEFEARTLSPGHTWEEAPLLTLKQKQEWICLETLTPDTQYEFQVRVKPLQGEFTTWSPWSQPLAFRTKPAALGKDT


How the values were obtained:
[1] = target: T1, recombinant fusion protein comprising …; assay: ELISA; polyvinyl chloride plates coated with IL-2R beta ECD/mouse IgG2a Fc at 10 µg/mL in PBS; Fc-fusion proteins diluted in M-PBS, 1 h at RT; detected with anti-human IgG-HRP; details: both partners purified
[2] = target: T1, recombinant fusion protein comprising …; assay: SPR; Biacore T200; IL-2R beta ECD/mouse IgG2a Fc amine-coupled to a CM5 chip; Fc-fusion proteins 1-800 nmol/L injected at 15 µL/min in PBS with 0.05% Tween 20; single-cycle mode; global fit to the 1:1 model; details: both partners purified

Binder | binding result [1] | fold decrease of KD against IL-2(K35E)/Fc [2] [fold] | koff [2] [s⁻¹]
81DPQDLIE87 + I92L(K35E)/Fc (Fc fusion, human, UniProt P60568 21-153, looked up, human interleukin-2 whose segment 81-87 reads DPQDLIE, with I92L; the first two aa (Ala-Pro) are present in the Fc constructs; source: HEK-293T adapted to suspension, transient transfection, purified from supernatant (protein A)) APTSSSTKKTQLQLEHLLLDLQMILNGINNYKNPELTRMLTFKFYMPKKATELKHLQCLEEELKPLEEVLNLAQSKNFHLDPQDLIENINVLVLELKGSETTFMCEYADETATIVEFLNRWITFCQSIISTLT | binds | – | –
80FDPADVVE87 + I92L(K35E)/Fc (Fc fusion, human, UniProt P60568 21-153, looked up, the first two aa (Ala-Pro) are present in the Fc constructs; source: HEK-293T adapted to suspension, transient transfection, purified from supernatant (protein A)) APTSSSTKKTQLQLEHLLLDLQMILNGINNYKNPELTRMLTFKFYMPKKATELKHLQCLEEELKPLEEVLNLAQSKNFHFDPADVVENINVLVLELKGSETTFMCEYADETATIVEFLNRWITFCQSIISTLT | binds | – | –
80FDPEDVVE87 + I92L(K35E)/Fc (Fc fusion, human, UniProt P60568 21-153, looked up, the first two aa (Ala-Pro) are present in the Fc constructs; source: HEK-293T adapted to suspension, transient transfection, purified from supernatant (protein A)) APTSSSTKKTQLQLEHLLLDLQMILNGINNYKNPELTRMLTFKFYMPKKATELKHLQCLEEELKPLEEVLNLAQSKNFHFDPEDVVENINVLVLELKGSETTFMCEYADETATIVEFLNRWITFCQSIISTLT | binds | – | –
80FDPHDVVE87 + I92L + V93L(K35E)/Fc (Fc fusion, human, UniProt P60568 21-153, looked up, the first two aa (Ala-Pro) are present in the Fc constructs; also called fusion protein derived from phage clone 1A; source: HEK-293T adapted to suspension, transient transfection, purified from supernatant (protein A)) APTSSSTKKTQLQLEHLLLDLQMILNGINNYKNPELTRMLTFKFYMPKKATELKHLQCLEEELKPLEEVLNLAQSKNFHFDPHDVVENINVLLLELKGSETTFMCEYADETATIVEFLNRWITFCQSIISTLT | binds | – | –
80VPPEDLIA87 + I92L(K35E)/Fc (Fc fusion, human, UniProt P60568 21-153, looked up, the first two aa (Ala-Pro) are present in the Fc constructs; source: HEK-293T adapted to suspension, transient transfection, purified from supernatant (protein A)) APTSSSTKKTQLQLEHLLLDLQMILNGINNYKNPELTRMLTFKFYMPKKATELKHLQCLEEELKPLEEVLNLAQSKNFHVPPEDLIANINVLVLELKGSETTFMCEYADETATIVEFLNRWITFCQSIISTLT | binds | – | –
80VPPEDLIE87 + I92L(K35E)/Fc (Fc fusion, human, UniProt P60568 21-153, looked up, the first two aa (Ala-Pro) are present in the Fc constructs; also called variant 2B further optimized by incorporating S87E; source: HEK-293T adapted to suspension, transient transfection, purified from supernatant (protein A)) APTSSSTKKTQLQLEHLLLDLQMILNGINNYKNPELTRMLTFKFYMPKKATELKHLQCLEEELKPLEEVLNLAQSKNFHVPPEDLIENINVLVLELKGSETTFMCEYADETATIVEFLNRWITFCQSIISTLT | binds | – | –
81DPQDLIE87(K35E)/Fc (Fc fusion, human, UniProt P60568 21-153, looked up, human interleukin-2 whose segment 81-87 reads DPQDLIE; the first two aa (Ala-Pro) are present in the Fc constructs; source: HEK-293T adapted to suspension, transient transfection, purified from supernatant (protein A)) APTSSSTKKTQLQLEHLLLDLQMILNGINNYKNPELTRMLTFKFYMPKKATELKHLQCLEEELKPLEEVLNLAQSKNFHLDPQDLIENINVIVLELKGSETTFMCEYADETATIVEFLNRWITFCQSIISTLT | binds | – | –
81VPEDLIE87 + I92L(K35E)/Fc (Fc fusion, human, UniProt P60568 21-153, looked up, human interleukin-2 whose segment 81-87 reads VPEDLIE, with I92L; the first two aa (Ala-Pro) are present in the Fc constructs; source: HEK-293T adapted to suspension, transient transfection, purified from supernatant (protein A)) APTSSSTKKTQLQLEHLLLDLQMILNGINNYKNPELTRMLTFKFYMPKKATELKHLQCLEEELKPLEEVLNLAQSKNFHLVPEDLIENINVLVLELKGSETTFMCEYADETATIVEFLNRWITFCQSIISTLT | binds | – | –
81VPEDLIE87(K35E)/Fc (Fc fusion, human, UniProt P60568 21-153, looked up, human interleukin-2 whose segment 81-87 reads VPEDLIE; the first two aa (Ala-Pro) are present in the Fc constructs; source: HEK-293T adapted to suspension, transient transfection, purified from supernatant (protein A)) APTSSSTKKTQLQLEHLLLDLQMILNGINNYKNPELTRMLTFKFYMPKKATELKHLQCLEEELKPLEEVLNLAQSKNFHLVPEDLIENINVIVLELKGSETTFMCEYADETATIVEFLNRWITFCQSIISTLT | binds | – | –
H9(K35E)/Fc (Fc fusion, human, UniProt P60568 21-153, looked up, human interleukin-2 with the mutations of H9 superkine and K35E; the first two aa (Ala-Pro) are present in the Fc constructs; Heavily aggregated in SEC; also called H9(K35)/Fc; fusion protein based on H9 superkine; source: HEK-293T adapted to suspension, transient transfection, purified from supernatant (protein A)) APTSSSTKKTQLQLEHLLLDLQMILNGINNYKNPELTRMLTFKFYMPKKATELKHLQCLEEELKPLEEVLNLAQSKNFHFDPRDVVSNINVFVLELKGSETTFMCEYADETATIVEFLNRWITFCQSIISTLT | – | ~25 | ~0.0003
H9(K35E)/Fc in which F92 was replaced by the original Ile (Fc fusion, human, UniProt P60568 21-153, looked up, human interleukin-2 with the H9 mutations except that residue 92 is the original Ile; the first two aa (Ala-Pro) are present in the Fc constructs; also called F92I-containing protein; source: HEK-293T adapted to suspension, transient transfection, purified from supernatant (protein A)) APTSSSTKKTQLQLEHLLLDLQMILNGINNYKNPELTRMLTFKFYMPKKATELKHLQCLEEELKPLEEVLNLAQSKNFHFDPRDVVSNINVIVLELKGSETTFMCEYADETATIVEFLNRWITFCQSIISTLT | binds | – | –
H9(K35E)/Fc in which F92 was replaced by the phage-selected Leu (Fc fusion, human, UniProt P60568 21-153, looked up, human interleukin-2 with the H9 mutations except that residue 92 is Leu; the first two aa (Ala-Pro) are present in the Fc constructs; also called F92L-containing protein; source: HEK-293T adapted to suspension, transient transfection, purified from supernatant (protein A)) APTSSSTKKTQLQLEHLLLDLQMILNGINNYKNPELTRMLTFKFYMPKKATELKHLQCLEEELKPLEEVLNLAQSKNFHFDPRDVVSNINVLVLELKGSETTFMCEYADETATIVEFLNRWITFCQSIISTLT | binds | – | –
